Laboratory results reported in publication PMC7612964.

Molecular target: Flag-NLS-Actin wt
Test: proximity ligation

endogenous BRM (from UniProt P51531 1-1590) (natural protein)
% PLA-positive cells (spread cells, high mechanical inputs): 94.7%
